Experimental data from patent US20210180049A1 (CHUGAI SEIYAKU KABUSHIKI KAISHA, priority 2013, published 2021).

Key:
[1] = molecular target: T1, human IL-6 receptor (hIL-6R) (Homo sapiens, UniProt P08887); assay: SPR (Biacore T200) of 6RNMSC1-2_F02 with hIL-6R with or without kynurenine or ATP; format: binding; conditions: 1 μmol/L hIL-6R
T1 sequence (P08887 20-357): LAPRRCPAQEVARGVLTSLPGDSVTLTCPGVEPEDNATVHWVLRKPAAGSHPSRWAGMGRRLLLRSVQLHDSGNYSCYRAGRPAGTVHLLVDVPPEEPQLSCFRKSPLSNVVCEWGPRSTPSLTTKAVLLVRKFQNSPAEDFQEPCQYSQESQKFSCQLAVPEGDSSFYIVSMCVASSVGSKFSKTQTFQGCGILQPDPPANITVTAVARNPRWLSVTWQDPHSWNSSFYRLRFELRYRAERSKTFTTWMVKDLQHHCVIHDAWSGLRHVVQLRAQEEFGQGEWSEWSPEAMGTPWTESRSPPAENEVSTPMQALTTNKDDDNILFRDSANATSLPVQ
Text: Biacore T200 (GE Healthcare) was used to analyze the interaction of antigen-antibody reaction between 6RNMSC1-2_F02 and human IL-6 receptor (hIL-6R). An appropriate amount of protein A (Invitrogen) was immobilized onto Sensor chip CM5 (GE Healthcare) by the amine coupling method. The antibody of interest was captured onto the sensor chip, and the antigen hIL-6R was allowed to interact. The running buffer used was 20 mmol/L ACES, 150 mmol/L NaCl, 0.05% (w/v) Tween 20, pH 7.4. The interaction with the antigen hIL-6R was measured at 25° C. hIL-6R was diluted with the running buffer, the running buffer containing 100 μmol/L kynurenine, or, as a control, the running buffer containing 10 mmol/L ATP.
Diluted hIL-6R solutions and the running buffer which is the blank were injected at a flow rate of 10 μL/min for one minute and hIL-6R was allowed to interact with 6RNMSC1-2_F02 captured on the sensor chip. Then, the running buffer was run at a flow rate of 10 μL/min for one minute to observe the dissociation of hIL-6R from the antibody. […] The dissociation constant KD (M) of 6RNMSC1-2_F02 for hIL-6R was calculated from the kinetic parameters, the association rate constant ka (1/Ms) and the dissociation rate constant kd (l/s), calculated based on the sensorgrams obtained by the measurements. Each parameter was calculated using Biacore T200 Evaluation Software (GE Healthcare).

[2] = molecular target: T2, hIL-6R (Homo sapiens, UniProt P08887); assay: IgG ELISA for hIL-6R binding under conditions of Table 38; conditions: IgG 2.5 μg/mL
T2 sequence (P08887 20-357 limits assumed): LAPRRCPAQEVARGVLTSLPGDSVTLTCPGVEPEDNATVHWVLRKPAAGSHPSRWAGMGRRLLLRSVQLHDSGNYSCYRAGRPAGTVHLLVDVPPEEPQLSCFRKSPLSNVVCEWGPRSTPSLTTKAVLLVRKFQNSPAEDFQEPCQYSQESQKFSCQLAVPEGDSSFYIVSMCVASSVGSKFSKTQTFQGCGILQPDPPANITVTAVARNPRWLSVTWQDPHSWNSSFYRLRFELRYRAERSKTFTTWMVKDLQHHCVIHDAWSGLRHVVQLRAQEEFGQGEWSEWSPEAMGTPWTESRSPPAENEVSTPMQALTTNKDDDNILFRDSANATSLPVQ
Description: The selected six types of antibodies and the 6RNMSC1-2_F02 antibody were subjected to ELISA under the conditions indicated in Table 38.
First, a StreptaWell 96 microtiter plate (Roche) was coated with 100 μL of TBS containing biotin-labeled hIL-6R at room temperature for one or more hours. After removing biotin-labeled hIL-6R that are not bound to the plate by washing each well of the plate with TBST, the wells were blocked with 250 μL of Blocking Buffer (2% skim milk/TBS) for one or more hours. Blocking Buffer was removed from each well. 100 μL each of the purified IgGs prepared to 2.5 μg/mL using TBS under the conditions described in Table 38 were added to the wells, and the plate was allowed to stand at room temperature for one hour to allow each IgG to bind to biotin-labeled hIL-6R in each well. TBST was prepared to make the final concentrations shown in Table 38, and each well was washed with the prepared TBST. HRP-conjugated anti-human IgG antibody (BIOSOURCE) diluted with TBS containing the same small molecules was added to each well. The plate was incubated for one hour. After washing with TBST prepared to the final concentrations shown in Table 38, the chromogenic reaction of the solution in each well added with TMB single solution (ZYMED) was terminated by adding sulfuric acid. Then, the color development was measured by absorbance at 450 nm.

[3] = format: binding; conditions: Biacore T200, 15° C.
Description: Kynurenine-dependent antibody 6RNMSC1-2_F02 obtained from the library was assessed for its binding to kynurenine and derivatives thereof using Biacore T200 (GE Healthcare). The following […] molecules were assessed as derivatives: the kynurenine isomer D-kynurenine and the derivatives 3-hydroxy-DL-kynurenine, 4-(4-methylphenyl)-4-oxobutyric acid, R00447436-000-001, RO0635389-000-001, R00438566-001-001, and RO0635390-000-001. The chemical structure of each compound is shown below.
An appropriate amount of protein A (Invitrogen) was immobilized onto Sensor chip CM4 (GE Healthcare) by the amine coupling method. The antibody of interest was captured thereon, and the antigen kynurenine and derivatives thereof were allowed to interact. The running buffer used was 50 mmol/L Tris-HCl, 150 mmol/L NaCl, 0.02% (w/v) Tween 20, 5% DMSO, pH 7.6. All measurements were carried out at 15° C. The antigens were diluted with the running buffer.
Then, the running buffer was run at a flow rate of 30 μL/min for 60 seconds to observe the dissociation of antigens from the antibody. Kinetic parameters, the association rate constant ka (1/Ms) and the dissociation rate constant kd (l/s), were calculated based on the sensorgrams obtained by the measurements. The dissociation constant KD (M) was calculated from these constants. Each parameter was calculated using Biacore T200 Evaluation Software (GE Healthcare).

[4] = molecular target: T1, human IL-6 receptor (hIL-6R); assay: phage ELISA for hIL-6R binding in the presence/absence of small molecule cocktail (SC); conditions: absorbance at 450 nm
Description: From a single colony of E. coli obtained in (6-1), a phage-containing culture supernatant was collected according to a conventional method (Methods Mol. Biol. (2002) 178, 133-145). […] A StreptaWell 96 microtiter plate (Roche) was coated overnight with 100 μL of TBS containing biotin-labeled hIL-6R. […] After removing 2% skim milk/TBS, purified phages were added to each well of the plate, and the plate was left still at room temperature for one hour to allow antibody-presenting phages to bind to biotin-labeled hIL-6R present in each well in the presence/absence of SC. Each well was washed with TBST or SC/TBST, and HRP-conjugated anti-M13 antibody (Amersham Pharmacia Biotech) diluted with TBS or SC/TBS was added thereto, and the plate was incubated for one hour. After washing with TBST or SC/TBST, the chromogenic reaction of TMB single solution (ZYMED) added in each well was terminated by adding sulfuric acid. Then, the color development was measured by absorbance at 450 nm.

B1: 6RNMSC1-2_F02: antibody binding hIL-6R in the presence of kynurenine; heavy chain SEQ ID NO: 32, light chain SEQ ID NO: 33 (antibody, listed as Homo sapiens, V domains shown)
VH: QVQLVQSGAEVKKPGSSVKVSCKASGGTFSSYAISWVRQAPGQGLEWMGGIIPIFGTANYAQKFQGRVTITADESTSTAYMELSSLRSEDTAVYYCARDAPVVARPRGAFDIWGQGTMVTVSS
VL: DIVMTQTPLSSPVTLGQPASISCRSSQSLVHSDGNTYLSWLQQRPGQPPRLLIHEISNRFSGVPDRFSGSGAGTNFTLKISRVEAEDVGVYYCMQATQFPRTFGQGTKVEIK
- hIL-6R binding in the absence of kynurenine [1]: not detected
- hIL-6R binding in the presence of kynurenine ([1]; 100 μmol/L kynurenine): bound to hIL-6R
- absorbance under condition 2 or 3 as compared to condition 1 (kynurenine-specific binding to biotin-labeled hIL-6R) [2]: markedly low
- binding to 3-hydroxy-DL-kynurenine [3]: bind
- binding to RO0635389-000-001 [3]: bind
- binding to RO0635390-000-001 [3]: bind
- binding activity to the antigen hIL-6R in the presence of a small molecule mixture [4]: having binding activity
